In PMC4661536, “Structural delineation of stem-loop RNA binding by human TAF15 protein”:

Columns and labels:
Conditions in all cases: protein: recombinant; hairpin, 8 bp stem, 9 nt loop
[1] = molecular target: TAF15-RRM (Homo sapiens, UniProt Q92804 231-323); test: ITC; N = 0.72; ITC: 10 mM HEPES pH 7.0, 20 mM Na2SO4 (+5 mM beta-mercaptoethanol for RRM-RanBP2 constructs), 298 K, 1 mM RNA into 100 uM protein. NMR: 20 mM Na phosphate pH 6.2, 25 mM NaCl, 5% D2O (RRM) or 25 mM Na2SO4, 5 mM beta-mercaptoethanol (TAF15-RRM-RanBP2), 298 K
Chain of TAF15-RRM (Q92804 231-323): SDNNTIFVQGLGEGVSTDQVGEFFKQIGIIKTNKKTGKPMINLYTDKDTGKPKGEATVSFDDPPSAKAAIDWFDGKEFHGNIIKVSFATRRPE

[2] = molecular target: T1, FUS-RRM (Homo sapiens, UniProt P35637 282-374); test: ITC; sequential site N1; ITC: 10 mM HEPES pH 7.0, 20 mM Na2SO4 (+5 mM beta-mercaptoethanol for RRM-RanBP2 constructs), 298 K, 1 mM RNA into 100 uM protein. NMR: 20 mM Na phosphate pH 6.2, 25 mM NaCl, 5% D2O (RRM) or 25 mM Na2SO4, 5 mM beta-mercaptoethanol (TAF15-RRM-RanBP2), 298 K
T1 sequence (P35637 282-374): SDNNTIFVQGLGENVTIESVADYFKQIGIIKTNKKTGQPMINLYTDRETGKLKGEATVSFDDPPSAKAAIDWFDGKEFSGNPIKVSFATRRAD

[3] = molecular target: T1, FUS-RRM; test: ITC; sequential site N2; ITC: 10 mM HEPES pH 7.0, 20 mM Na2SO4 (+5 mM beta-mercaptoethanol for RRM-RanBP2 constructs), 298 K, 1 mM RNA into 100 uM protein. NMR: 20 mM Na phosphate pH 6.2, 25 mM NaCl, 5% D2O (RRM) or 25 mM Na2SO4, 5 mM beta-mercaptoethanol (TAF15-RRM-RanBP2), 298 K
[4] = molecular target: T1, FUS-RRM; test: ITC; sequential site N3; ITC: 10 mM HEPES pH 7.0, 20 mM Na2SO4 (+5 mM beta-mercaptoethanol for RRM-RanBP2 constructs), 298 K, 1 mM RNA into 100 uM protein. NMR: 20 mM Na phosphate pH 6.2, 25 mM NaCl, 5% D2O (RRM) or 25 mM Na2SO4, 5 mM beta-mercaptoethanol (TAF15-RRM-RanBP2), 298 K
[5] = molecular target: FUS-RRM-RanBP2 (Homo sapiens, UniProt P35637 282-454); test: ITC; N = 0.7; 5 mM beta-mercaptoethanol; ITC: 10 mM HEPES pH 7.0, 20 mM Na2SO4 (+5 mM beta-mercaptoethanol for RRM-RanBP2 constructs), 298 K, 1 mM RNA into 100 uM protein. NMR: 20 mM Na phosphate pH 6.2, 25 mM NaCl, 5% D2O (RRM) or 25 mM Na2SO4, 5 mM beta-mercaptoethanol (TAF15-RRM-RanBP2), 298 K
Chain of FUS-RRM-RanBP2 (P35637 282-454): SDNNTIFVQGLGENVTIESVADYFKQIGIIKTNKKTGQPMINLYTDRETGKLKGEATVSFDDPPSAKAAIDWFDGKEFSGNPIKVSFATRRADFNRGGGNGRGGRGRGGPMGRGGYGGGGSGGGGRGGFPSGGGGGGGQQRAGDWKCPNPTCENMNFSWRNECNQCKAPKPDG

[6] = molecular target: TAF15-RRM-RanBP2 (Homo sapiens, UniProt Q92804 231-388); test: ITC; N = 0.8; 5 mM beta-mercaptoethanol; ITC: 10 mM HEPES pH 7.0, 20 mM Na2SO4 (+5 mM beta-mercaptoethanol for RRM-RanBP2 constructs), 298 K, 1 mM RNA into 100 uM protein. NMR: 20 mM Na phosphate pH 6.2, 25 mM NaCl, 5% D2O (RRM) or 25 mM Na2SO4, 5 mM beta-mercaptoethanol (TAF15-RRM-RanBP2), 298 K
Chain of TAF15-RRM-RanBP2 (Q92804 231-388): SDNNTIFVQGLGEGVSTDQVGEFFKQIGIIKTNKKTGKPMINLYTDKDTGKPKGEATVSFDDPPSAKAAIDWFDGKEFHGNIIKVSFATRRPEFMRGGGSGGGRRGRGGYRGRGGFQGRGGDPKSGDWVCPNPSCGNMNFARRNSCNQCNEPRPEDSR

[7] = molecular target: T1, FUS-RRM; test: ITC; average over three sequential sites; ITC: 10 mM HEPES pH 7.0, 20 mM Na2SO4 (+5 mM beta-mercaptoethanol for RRM-RanBP2 constructs), 298 K, 1 mM RNA into 100 uM protein. NMR: 20 mM Na phosphate pH 6.2, 25 mM NaCl, 5% D2O (RRM) or 25 mM Na2SO4, 5 mM beta-mercaptoethanol (TAF15-RRM-RanBP2), 298 K

B1: SON stem-loop RNA (structured_RNA)
RNA: CGUAUCUUUAACUACUCAAGAUACG
Kd [1]: 10 ± 1 µM
Kd [2]: 10 ± 1 µM
Kd [3]: 13 ± 1.6 µM
Kd [4]: 12 ± 0.3 µM
Kd [5]: 8 ± 0.7 µM
Kd [6]: 6 ± 0.7 µM
Kd [7]: 11 µM
